# Experimental data reported in publication PMC2646141.
# B1: wild type APOBEC3G prey [human] / wild type APOBEC3G bait [human] (parent)
# chain 1: MKPHFRNTVERMYRDTFSYNFYNRPILSRRNTVWLCYEVKTKGPSRPPLDAKIFRGQVYSELKYHPEMRFFHWFSKWRKLHRDQEYEVTWYISWSPCTKCTRDMATFLAEDPKVTLTIFVARLYYFWDPDYQEALRSLCQKRDGPRATMKIMNYDEFQHCWSKFVYSQRELFEPWNNLPKYYILLHIMLGEILRHSMDPPTFTFNFNNEPWVRGRHETYLCYEVERMHNDTWVLLNQRRGFLCNQAPHKHGFLEGRHAELCFLDVIPFWKLDLDQDYRVTCFTSWSPCFSCAQEMAKFISKNKHVSLCIFTARIYDDQGRCQEGLRTLAEAGAKISIMTYSEFKHCWDTFVDHQGCPFQPWDGLDEHSQDLSGRLRAILQNQEN
# chain 2: B1 chain 1
# Variants of: B1
# Assay: yeast two-hybrid (β-galactosidase activity)
# Details: with wild type APOBEC3G (A3G) bait [human]; parent: 0.5; read off a plot
row,Variant,response
1,chain 1 W127A,0.038 OD540
2,chain 1 W127Y,0.031 OD540
3,chain 1 Y124A,0.062 OD540
4,chain 1 Y124F,0.05 OD540
5,chain 1 Y124L,0.042 OD540
6,chain 1 Y315A,0.59 OD540
7,chain 1 Y315F,0.34 OD540
8,chain 1 Y315L,0.5 OD540
